Experimental data as given in patent US20200353088A1, “PEPTIDE CONJUGATE CGRP RECEPTOR ANTAGONISTS AND METHODS OF PREPARATION AND USES THEREOF” (Auckland UniServices Limited, priority 2017, published 2020).
Where a SMILES comes first, the peptide text is derived from it. Where no end group is shown, it is not given here. The star is where a group is joined. Ethyl(2-palmitoyloxy) = CCCCCCCCCCCCCCCC(=O)OCC*

What was measured:
[1] = target: T1, CGRP (CLR/RAMP1) receptor (Homo sapiens, UniProt O60894+Q16602); assay: Antagonism of CGRP-induced cAMP accumulation in Cos 7 cells transfected with CLR/RAMP1; format: cell-based; conditions: transfected Cos-7 cells, cAMP, human alpha CGRP; mean ± s.e.m (n); Global Schild analysis; read-out: Antagonist potency (pKB), CGRP (CLR/RAMP1) (converted)
T1 construct: expressed in transfected cells; host or cells: Cos 7 (African green monkey kidney), transient transfection with polyethylenimine
T1 sequence (Q16602 23-461): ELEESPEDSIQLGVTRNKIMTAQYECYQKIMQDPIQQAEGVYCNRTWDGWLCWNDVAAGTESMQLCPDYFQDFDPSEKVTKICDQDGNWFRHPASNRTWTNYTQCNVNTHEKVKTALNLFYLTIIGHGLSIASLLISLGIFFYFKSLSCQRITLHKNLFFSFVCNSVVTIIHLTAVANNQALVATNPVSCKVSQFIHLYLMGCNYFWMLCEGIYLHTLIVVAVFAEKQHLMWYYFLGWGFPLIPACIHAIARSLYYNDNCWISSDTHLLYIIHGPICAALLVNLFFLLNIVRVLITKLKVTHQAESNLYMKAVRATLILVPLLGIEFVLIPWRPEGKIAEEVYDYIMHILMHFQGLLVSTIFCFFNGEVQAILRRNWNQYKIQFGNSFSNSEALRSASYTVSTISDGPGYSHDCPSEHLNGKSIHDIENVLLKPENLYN
T1 sequence (O60894 27-148): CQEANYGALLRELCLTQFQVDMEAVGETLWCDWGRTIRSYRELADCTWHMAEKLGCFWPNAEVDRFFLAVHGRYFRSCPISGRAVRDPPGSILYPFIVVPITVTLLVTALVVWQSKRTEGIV
Experimental: (§1) 1. Antagonism of CGRP-Induced cAMP Accumulation in Transfected CGRP Receptor Expressing Cells
(§2) Simian vacuolating virus 40 (SV40) transformed African green monkey kidney (Cos 7) cells were transiently transfected with calcitonin receptor-like receptor (CLR) or calcitonin receptor (CTR) together with receptor activity-modifying protein 1 (RAMP1) to form CGRP or AMY1(a) receptors.
(§3) On the day of experimentation, media was replaced with 50 μl DMEM containing 1 mM isobutylmethylxanthine and 0.1% bovine serum albumin for 30 min. All peptides were diluted in assay medium and after the 30 min incubation, 25 μl antagonists were added, followed immediately by 25 μl human alpha CGRP (hαCGRP), giving a total assay volume of 100 μl. Once human alpha CGRP was added, the cells were incubated at 37° C. for 15 minutes. The media was then aspirated from the wells and reactions terminated with ice-cold absolute ethanol. Ethanol was evaporated to dryness and cAMP was quantified using a commercially-available assay (LANCE Perkin Elmer).
(§4) 3. Calculation of Antagonist Potency Values
(§5) Data were analysed using Graphpad Prism 7. Antagonist pKB or pA2 values were obtained using Global Schild analysis. […] Where a single concentration of antagonist was used, pA2 values are used to describe antagonist potency.

[2] = target: T2, CGRP receptor endogenously expressed in SK-N-MC cells (Homo sapiens, UniProt O60894+Q16602); assay: Antagonism of CGRP-induced cAMP accumulation in SK-N-MC cells; format: cell-based; conditions: human alpha CGRP, mean ± s.e.m (n), read-out: SK-N-MC (pA2) (converted)
T2 construct: SK-N-MC are human neuroblastoma-derived cells that endogenously express a CGRP receptor; endogenous in cells; host or cells: SK-N-MC human neuroblastoma-derived cells
T2 sequence (Q16602 23-461): as the sequence (Q16602 23-461) above
T2 sequence (O60894 27-148): as the sequence (O60894 27-148) above
Experimental: The cells were cultured in DMEM supplemented with 8% heat inactivated fetal bovine serum and kept in a 37° C. humidified 95% air/5% CO2 incubator. […] On the day of experimentation, media was replaced with DMEM containing 1 mM isobutylmethylxanthine and 0.1% bovine serum albumin for 30 min. After this period antagonists were added, followed by human alpha CGRP. Once human alpha CGRP was added, the cells were incubated at 37° C. for 15 minutes. The media was then aspirated from the wells and reactions terminated with ice-cold absolute ethanol. […] Calculation of Antagonist Potency Values Data were analysed using Graphpad Prism 7. Antagonist pKB or pA2 values were obtained using Global Schild analysis. […] Where a single concentration of antagonist was used, pA2 values are used to describe antagonist potency.

[3] = target: T3, AMY1 (CTR/RAMP1) receptor (Homo sapiens, UniProt O60894+P30988); assay: Antagonism of CGRP-induced cAMP accumulation in Cos 7 cells transfected with CTR/RAMP1; format: cell-based; conditions: transfected Cos-7 cells
T3 construct: expressed in transfected cells; host or cells: Cos 7 (African green monkey kidney), transient transfection with polyethylenimine
T3 sequence (P30988 25-474): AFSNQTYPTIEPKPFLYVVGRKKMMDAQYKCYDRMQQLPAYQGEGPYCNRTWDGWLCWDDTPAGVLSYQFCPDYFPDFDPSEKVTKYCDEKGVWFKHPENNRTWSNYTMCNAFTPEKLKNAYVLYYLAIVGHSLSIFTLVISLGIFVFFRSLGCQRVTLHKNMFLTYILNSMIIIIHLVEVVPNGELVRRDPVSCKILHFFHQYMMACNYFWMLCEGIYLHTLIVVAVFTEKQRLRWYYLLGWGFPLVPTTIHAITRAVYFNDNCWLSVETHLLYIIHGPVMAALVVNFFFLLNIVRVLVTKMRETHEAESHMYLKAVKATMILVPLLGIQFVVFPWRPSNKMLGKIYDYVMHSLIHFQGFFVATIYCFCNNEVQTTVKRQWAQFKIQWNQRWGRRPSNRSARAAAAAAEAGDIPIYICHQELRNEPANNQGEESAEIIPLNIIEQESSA
T3 sequence (O60894 27-148): as the sequence (O60894 27-148) above
Experimental: as §1, §2, §3, §4, §5

[4] = target: T3, AMY1 (CTR/RAMP1) receptor; assay: cAMP assay with antagonist pre-incubation, with or without wash step, CTR/RAMP1 transfected Cos 7 cells; format: cell-based; conditions: 15 min antagonist pre-incubation, mean ± s.e.m (n)
Experimental: Cos 7 cells were cultured in Dulbecco's Modified Eagle Medium (DMEM) supplemented with 8% heat inactivated fetal bovine serum and kept in a 37° C. humidified 95% air/5% CO2 incubator. […] In a different specific experimental paradigm, media was replaced with DMEM containing 1 mM isobutylmethylxanthine and 0.1% bovine serum albumin for 30 min. After this period, 25 μl of antagonist or media was added for 15 minutes at 37° C. as a pre-incubation period. After pre-incubation, the antagonist or media were aspirated from some wells, washed once with phosphate-buffered saline and replaced with 75 μl new media. The other wells with antagonist were not washed. […] Once human alpha CGRP was added, the cells were incubated at 37° C. for 15 minutes. The media was then aspirated from the wells and reactions terminated with ice-cold absolute ethanol. […] Calculation of Antagonist Potency Values Data were analysed using Graphpad Prism 7. Antagonist pKB or pA2 values were obtained using Global Schild analysis. […] Where a single concentration of antagonist was used, pA2 values are used to describe antagonist potency.

[5] = target: T4, human CGRP receptor (CLR/RAMP1), transiently transfected in Cos 7 cells (human, UniProt Q16602 23-461; O60894 27-148); assay: cell-based or functional assay
T4 sequence (Q16602 23-461, chain 1 of 2): as the sequence (Q16602 23-461) above
T4 sequence (O60894 27-148, chain 2 of 2): as the sequence (O60894 27-148) above

[6] = target: CGRP receptor endogenously expressed by SK-N-MC human neuroblastoma-derived cells (human, UniProt Q16602 23-461; O60894 27-148); assay: cell-based or functional assay
Chain of CGRP receptor endogenously expressed by SK-N-MC human neuroblastoma-derived cells (Q16602 23-461, chain 1 of 2): as the sequence (Q16602 23-461) above
Chain of CGRP receptor endogenously expressed by SK-N-MC human neuroblastoma-derived cells (O60894 27-148, chain 2 of 2): as the sequence (O60894 27-148) above

[7] = target: T4, human CGRP receptor (CLR/RAMP1), …; assay: cell-based or functional assay; remark: listed apart in the source
[8] = target: T4, human CGRP receptor (CLR/RAMP1), …; assay: cell-based or functional assay; remark: listed apart in the source
[9] = target: human AMY1(a) receptor (CTR/RAMP1), transiently transfected in Cos 7 cells (human), P30988; assay: cell-based or functional assay
Chain of human AMY1(a) receptor (CTR/RAMP1), transiently transfected in Cos 7 cells (human), P30988 (P30988 25-474, chain 1 of 2): as the sequence (P30988 25-474) above
Chain of human AMY1(a) receptor (CTR/RAMP1), transiently transfected in Cos 7 cells (human), P30988 (O60894 27-148, chain 2 of 2, further chain): as the sequence (O60894 27-148) above

Row | Fold change reduction in pA2 with wash [5] [fold] | A2 (antilog of the negative pA2; cAMP assay, SK-N-MC) [6] [pM] | antagonist potency pA2 (cAMP assay, SK-N-MC) [6] | A2 (antilog of the negative pA2; cAMP assay, Cos 7) [7] [nM] | Selectivity (fold-difference CGRP vs. AMY1) [7] [fold] | antagonist potency pKB (cAMP assay, Cos 7) [7] | A2, with wash (cAMP assay, Cos 7) [8] [nM] | A2, without wash (cAMP assay, Cos 7) [8] [nM] | antagonist potency pA2, with wash (cAMP assay, Cos 7) [8] | antagonist potency pA2, without wash (cAMP assay, Cos 7) [8] | A2 (antilog of the negative pA2; cAMP assay, Cos 7) [9] [nM] | A2, with wash (cAMP assay, Cos 7) [9] [nM] | A2, without wash (cAMP assay, Cos 7) [9] [nM] | Fold change reduction in pA2 with wash [9] [fold] | antagonist potency pA2, with wash (cAMP assay, Cos 7) [9] | antagonist potency pA2, without wash (cAMP assay, Cos 7) [9] | antagonist potency pKB (cAMP assay, Cos 7) [9] | Molecule | further results
1 |  |  |  |  |  |  |  |  |  |  |  |  |  |  |  |  |  | CCCCCCCCCCCCCCCC(=O)OCCSC[C@H](NC(=O)[C@@H](NC(=O)[C@@H](NC(=O)CNC(=O)CNC(=O)[C@H](CO)NC(=O)[C@H](CCCNC(=N)N)NC(=O)[C@H](CO)NC(=O)[C@H](CC(C)C)NC(=O)[C@H](CC(C)C)NC(=O)CNC(=O)[C@H](C)NC(=O)[C@H](CC(C)C)NC(=O)[C@H](CCCNC(=N)N)NC(=O)[C@H](Cc1c[nH]cn1)NC(=O)[C@@H](NC(=O)[C@@H](N)C(C)C)[C@@H](C)O)C(C)C)C(C)C)C(=O)N[C@@H](CC(N)=O)C(=O)N[C@@H](CC(N)=O)C(=O)N[C@@H](Cc1ccccc1)C(=O)N[C@H](C(=O)N1CCC[C@H]1C(=O)N[C@H](C(=O)N[C@@H](CC(N)=O)C(=O)N[C@H](C(=O)NCC(=O)N[C@@H](CO)C(=O)N[C@@H](CCCCN)C(=O)N[C@@H](C)C(=O)N[C@@H](Cc1ccccc1)C(N)=O)C(C)C)[C@@H](C)O)C(C)C [A5, K24C(S-Pam) CGRP8-37] (H-VTHRLAGLLSRSGGVVC(Ethyl(2-palmitoyloxy))NNFVPTNVGSKAF-NH2) | Kb [1]: 6.76 nM; Kb [2]: 0.0871 nM; Kb ([3]; human alpha CGRP, mean ± s.e.m (n), read-out: Antagonist potency (pKB), AMY1 (CTR/RAMP1) (converted)): 1.78 nM; Kb ([3]; read-out: A2 (antilog of the negative pA2), AMY1 (CTR/RAMP1) (converted)): 1.8 nM; Kb ([4]; not washed, read-out: pA2, AMY1 (CTR/RAMP1), Without wash (converted)): 0.372 nM; Kb ([4]; washed once with PBS, read-out: pA2, AMY1 (CTR/RAMP1), With wash (converted)): 3.55 nM
2 | 14 | 90 | 10.1 | 6.8 | -4 | 8.17 | 0.74 | 0.05 | 9.13 | 10.3 | 1.8 | 3.5 | 0.37 | 9.6 | 8.45 | 9.43 | 8.75 | VTHRLAGLLSRSGGVVC(Ethyl(2-palmitoyloxy))NNFVPTNVGSKAF-NH2 [K24C(S-Pam) CGRP8-37 A5] | 
3 | 3.3 | 20 | 10.7 | 1.7 | < 2 | 8.78 | 0.46 | 0.14 | 9.34 | 9.86 |  |  |  |  |  |  |  | CVTHRLAGLLSRSGGVVKNNFVPTNVGSKAF (Cys 7 (CGRP numbering; residue 1 of the entry) S-conjugated to 2-(palmitoyloxy)ethyl (S-Pam); C-terminal amide) [7C(S-Pam) CGRP7-37 B1] | 
4 | 22 | 20 | 10.8 | 0.59 | 12 | 9.23 | 3.3 | 0.15 | 8.48 | 9.82 | 7.1 | 2.9 | 1 | 2.8 | 8.54 | 8.98 | 8.15 | C(Ethyl(2-palmitoyloxy))THRLAGLLSRSGGVVKNNFVPTNVGSKAF-NH2 [V8C(S-Pam) CGRP8-37 A4] | 
